# From the supplement of paper PMC9112550, “Optimization of the antimicrobial peptide Bac7 by deep mutational scanning” (BMC Biology, 2022)
# System: Escherichia coli TOP10
# Assay: shrunken log2 fold change of peptide-encoding DNA abundance (4.5 h post-induction vs induction); higher = less antimicrobial activity (less host growth inhibition)
# Conditions: time post-induction: 4.5 h; library: site-saturation at positions 5, 18, 19, 20
# 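Further: peptides expressed intracellularly from a pBAD plasmid library in pooled LB shake-flask culture, induced with 0.3% L-arabinose, DNA abundance read by NGS, three biological replicates, DESeq2 with apeglm shrinkage.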
row,Sequence,shrunken log2 fold change
1,RRIRHRPPRLPRPRPRPPLFPRP,0.169
2,RRIRIRPPRLPRPRPRPQVTPRP,-0.4
3,RRIRCRPPRLPRPRPRPQLCPRP,0.192
4,RRIRPRPPRLPRPRPRPWEIPRP,-0.00151
5,RRIRFRPPRLPRPRPRPFQEPRP,-0.00353
6,RRIRFRPPRLPRPRPRPPFFPRP,0.243
7,RRIRSRPPRLPRPRPRPQMDPRP,-0.0665
8,RRIRSRPPRLPRPRPRPHYPPRP,-0.615
9,RRIRQRPPRLPRPRPRPVEVPRP,-0.0922
10,RRIRDRPPRLPRPRPRPDVYPRP,-0.00822
11,RRIRLRPPRLPRPRPRPPRAPRP,0.875
12,RRIRRRPPRLPRPRPRPGKPPRP,0.293
13,RRIRNRPPRLPRPRPRPMHTPRP,0.0242
14,RRIRIRPPRLPRPRPRPPQTPRP,0.0803
15,RRIRCRPPRLPRPRPRPSEAPRP,0.125
16,RRIRKRPPRLPRPRPRPGQQPRP,0.0114
17,RRIRWRPPRLPRPRPRPIPWPRP,-0.0329
18,RRIRMRPPRLPRPRPRPPMCPRP,0.293
19,RRIRGRPPRLPRPRPRPAKHPRP,0.209
20,RRIRFRPPRLPRPRPRPSWCPRP,-0.0879
21,RRIRHRPPRLPRPRPRPVYTPRP,-0.206
22,RRIRQRPPRLPRPRPRPEVPPRP,-0.00133
23,RRIRVRPPRLPRPRPRPWIKPRP,0.0141
24,RRIRMRPPRLPRPRPRPDLNPRP,0.178
25,RRIRFRPPRLPRPRPRPLPQPRP,1.15

row,Sequence,shrunken log2 fold change
1,RRIRGRPPRLPRPRPRPGKEPRP,0.225
2,RRIRHRPPRLPRPRPRPSTSPRP,-0.478
3,RRIRLRPPRLPRPRPRPLPQPRP,0.0529
4,RRIRMRPPRLPRPRPRPFLIPRP,-0.34
5,RRIRVRPPRLPRPRPRPTIWPRP,-0.0331
6,RRIRRRPPRLPRPRPRPVVYPRP,0.152
7,RRIRTRPPRLPRPRPRPQWSPRP,-0.431
8,RRIRSRPPRLPRPRPRPEQNPRP,0.274
9,RRIRQRPPRLPRPRPRPMPNPRP,-0.215
10,RRIRARPPRLPRPRPRPLLRPRP,0.103
11,RRIRCRPPRLPRPRPRPRPLPRP,0.319
12,RRIRGRPPRLPRPRPRPSDRPRP,0.137
13,RRIRPRPPRLPRPRPRPTMKPRP,-0.179
14,RRIRMRPPRLPRPRPRPSGNPRP,-0.14
15,RRIRGRPPRLPRPRPRPQLHPRP,0.231
16,RRIRIRPPRLPRPRPRPCDVPRP,-0.124
17,RRIRRRPPRLPRPRPRPFVCPRP,0.191
18,RRIRQRPPRLPRPRPRPKENPRP,0.168
19,RRIRRRPPRLPRPRPRPLNLPRP,0.0248
20,RRIRQRPPRLPRPRPRPTLSPRP,0.322
21,RRIRGRPPRLPRPRPRPYRPPRP,-0.186
22,RRIRQRPPRLPRPRPRPMTTPRP,3.23
23,RRIRPRPPRLPRPRPRPIWMPRP,0.0829
24,RRIRPRPPRLPRPRPRPHKKPRP,0.165
25,RRIRGRPPRLPRPRPRPICGPRP,0.728

row,Sequence,shrunken log2 fold change
1,RRIRDRPPRLPRPRPRPTQLPRP,-0.0815
2,RRIRGRPPRLPRPRPRPSVVPRP,0.658
3,RRIRFRPPRLPRPRPRPEAAPRP,0.965
4,RRIRKRPPRLPRPRPRPCKFPRP,0.142
5,RRIRMRPPRLPRPRPRPFQFPRP,-0.0349
6,RRIRERPPRLPRPRPRPRPEPRP,0.314
7,RRIRPRPPRLPRPRPRPSFCPRP,0.0813
8,RRIRPRPPRLPRPRPRPYDTPRP,0.0749
9,RRIRCRPPRLPRPRPRPMHYPRP,-0.24
10,RRIRYRPPRLPRPRPRPQPDPRP,-0.0504
11,RRIRYRPPRLPRPRPRPLPCPRP,-0.413
12,RRIRGRPPRLPRPRPRPGYSPRP,2.2
13,RRIRYRPPRLPRPRPRPCQPPRP,-0.354
14,RRIRGRPPRLPRPRPRPAPLPRP,0.893
15,RRIRPRPPRLPRPRPRPPWTPRP,0.267
16,RRIRLRPPRLPRPRPRPGPAPRP,0.972
17,RRIRIRPPRLPRPRPRPVNVPRP,-0.404
18,RRIRPRPPRLPRPRPRPQNTPRP,-0.407
19,RRIRRRPPRLPRPRPRPKARPRP,0.277
20,RRIRVRPPRLPRPRPRPWYDPRP,-0.00243
21,RRIRCRPPRLPRPRPRPEQLPRP,0.407
22,RRIRDRPPRLPRPRPRPHCNPRP,-0.226
23,RRIRWRPPRLPRPRPRPQAQPRP,0.00496
24,RRIRERPPRLPRPRPRPPGCPRP,0.124
25,RRIRNRPPRLPRPRPRPVWAPRP,0.599

row,Sequence,shrunken log2 fold change
1,RRIRYRPPRLPRPRPRPHKQPRP,-0.0853
2,RRIRIRPPRLPRPRPRPKPTPRP,0.448
3,RRIRFRPPRLPRPRPRPVCPPRP,0.311
4,RRIRDRPPRLPRPRPRPYSKPRP,0.0519
5,RRIRCRPPRLPRPRPRPSHQPRP,-1.04
6,RRIRYRPPRLPRPRPRPYEGPRP,-0.00776
7,RRIRFRPPRLPRPRPRPGSIPRP,-0.235
8,RRIRKRPPRLPRPRPRPPSNPRP,0.714
9,RRIRCRPPRLPRPRPRPRKLPRP,0.0902
10,RRIRFRPPRLPRPRPRPHHKPRP,-0.462
11,RRIRQRPPRLPRPRPRPPKLPRP,0.202
12,RRIRPRPPRLPRPRPRPYCIPRP,-0.654
13,RRIRFRPPRLPRPRPRPKKAPRP,0.173
14,RRIRQRPPRLPRPRPRPGMPPRP,-0.0642
15,RRIRSRPPRLPRPRPRPMNMPRP,-0.118
16,RRIRMRPPRLPRPRPRPYADPRP,0.419
17,RRIRPRPPRLPRPRPRPIENPRP,-0.414
18,RRIRKRPPRLPRPRPRPDRFPRP,-0.0614
19,RRIRCRPPRLPRPRPRPFLSPRP,-0.28
20,RRIRNRPPRLPRPRPRPFIHPRP,-0.116
21,RRIRDRPPRLPRPRPRPMFLPRP,0.0737
22,RRIRSRPPRLPRPRPRPSYPPRP,-0.736
23,RRIRFRPPRLPRPRPRPYSDPRP,-0.298
24,RRIRTRPPRLPRPRPRPPAKPRP,1.11
25,RRIRVRPPRLPRPRPRPTPFPRP,0.279

row,Sequence,shrunken log2 fold change
1,RRIRQRPPRLPRPRPRPVWLPRP,0.2
2,RRIRNRPPRLPRPRPRPNPGPRP,0.118
3,RRIRWRPPRLPRPRPRPFSKPRP,-0.0531
4,RRIRWRPPRLPRPRPRPARIPRP,0.176
5,RRIRCRPPRLPRPRPRPECFPRP,0.165
6,RRIRTRPPRLPRPRPRPYTSPRP,-0.00661
7,RRIRDRPPRLPRPRPRPKEYPRP,-0.0963
8,RRIRERPPRLPRPRPRPPRHPRP,0.0414
9,RRIRWRPPRLPRPRPRPNVVPRP,-0.144
10,RRIRYRPPRLPRPRPRPSIAPRP,-0.216
11,RRIRSRPPRLPRPRPRPRGTPRP,0.407
12,RRIRDRPPRLPRPRPRPMGWPRP,0.476
13,RRIRCRPPRLPRPRPRPGLGPRP,0.512
14,RRIRSRPPRLPRPRPRPQYRPRP,-0.234
15,RRIRSRPPRLPRPRPRPEMRPRP,0.84
16,RRIRDRPPRLPRPRPRPLAPPRP,0.607
17,RRIRDRPPRLPRPRPRPETFPRP,0.00902
18,RRIRGRPPRLPRPRPRPKAAPRP,1.26
19,RRIRFRPPRLPRPRPRPGDHPRP,0.0283
20,RRIRSRPPRLPRPRPRPCQSPRP,-0.01
21,RRIRRRPPRLPRPRPRPLYEPRP,-0.0905
22,RRIRYRPPRLPRPRPRPVAKPRP,-0.128
23,RRIRLRPPRLPRPRPRPAAMPRP,0.158
24,RRIRVRPPRLPRPRPRPSLWPRP,0.183
25,RRIRCRPPRLPRPRPRPPNNPRP,-0.138

row,Sequence,shrunken log2 fold change
1,RRIRLRPPRLPRPRPRPYSDPRP,-0.0348
2,RRIRSRPPRLPRPRPRPDPKPRP,-0.00687
3,RRIRDRPPRLPRPRPRPPTSPRP,0.00594
4,RRIRQRPPRLPRPRPRPCREPRP,-0.0541
5,RRIRARPPRLPRPRPRPFSMPRP,-0.215
6,RRIRIRPPRLPRPRPRPKHCPRP,-0.405
7,RRIRIRPPRLPRPRPRPPFEPRP,-0.0183
8,RRIRRRPPRLPRPRPRPCRQPRP,0.0284
9,RRIRSRPPRLPRPRPRPVVKPRP,-0.14
10,RRIRRRPPRLPRPRPRPRTRPRP,0.528
11,RRIRDRPPRLPRPRPRPGTNPRP,-0.344
12,RRIRYRPPRLPRPRPRPHMAPRP,-0.155
13,RRIRTRPPRLPRPRPRPIHIPRP,0.0274
14,RRIRSRPPRLPRPRPRPQWYPRP,-0.73
15,RRIRARPPRLPRPRPRPWPTPRP,0.703
16,RRIRRRPPRLPRPRPRPYIIPRP,-0.427
17,RRIRWRPPRLPRPRPRPQVYPRP,-0.015
18,RRIRGRPPRLPRPRPRPHVIPRP,-0.191
19,RRIRLRPPRLPRPRPRPFEHPRP,0.0204
20,RRIRNRPPRLPRPRPRPAQGPRP,0.279
21,RRIRQRPPRLPRPRPRPFNGPRP,-0.3
22,RRIRKRPPRLPRPRPRPRANPRP,0.588
23,RRIRNRPPRLPRPRPRPDNTPRP,-0.297
24,RRIRHRPPRLPRPRPRPATCPRP,-0.196
25,RRIRHRPPRLPRPRPRPPYGPRP,0.0267
